Measurements as given in US20220380425A1, “ANGPTL3 BASED VACCINE FOR THE TREATMENT OF LIVER DISEASE” (CADILA HEALTHCARE LIMITED, priority 2019, published 2022).
Square brackets hold non-standard residues; d marks the D form. Ends that are not written are not given here. APPA = 2-aminophenyl pentanoic acid; hArg = N=C(N)NCCCC[C@H](N)C(=O)O; Cit = NC(=O)NCCC[C@H](N)C(=O)O; Nle = CCCC[C@H](N)C(=O)O; Aib = CC(C)(N)C(=O)O

Key:
[1] = test system: Anti-ANGPTL3 polyclonal antibody (ABC83, Sigma); assay: Affinity determination of peptides with anti-ANGPTL3 antibody by surface plasmon resonance (Biacore T200); type: binding; conditions: SPR, peptide 1 mM in 1×PBS over immobilized anti-ANGPTL3 pAb, 25° C., response 5 s before end of injection
Method: Affinity of novel peptides of the present invention with anti-ANGPTL3 antibody ‘ANG’ was analysed by surface plasmon resonance (SPR), using a Biacore instrument (Biacore T200, GE Healthcare). SPR experiments were performed at […] with a BIACORE T200 apparatus (GE Healthcare, Uppsala, Sweden).
Surface Preparation: (Procedure for Antibody immobilization) Series S Sensor Chip CM5 surface was activated by a 7-min injection of EDC-NHS. Anti-ANGPTL3 polyclonal antibody (ABC83, Sigma), diluted to 4.5 μg/mL in 10 mM acetate buffer (pH 4.0), was immobilized on one of the four flow cells of a Series S Sensor Chip CM5 with the aim of 10000 RU (resonance units) using amine-coupling. The surface was blocked with 1M ethanolamine (pH 8.5). One flow cell was immobilized as blank for reference subtraction (without antibody). 1×PBS was used as running buffer.
Binding experiments: 1 mM stock of novel peptides of the present invention were made in 1×PBS and binding studies were conducted by passing over blank as well as ligand (anti-ANGPTL3 pAb) immobilized surface. Each cycle consisted of 120 s analyte (novel peptides of the present invention) injection at a flow rate of 10 μL/min (the association phase), followed by a dissociation phase of 300 s. Purified human recombinant ANGPTL3 (FLAG-tag, 91009-1, bps bioscience) was used as positive control (1 μM) and was analyzed under identical condition. Complete dissociation of ANGPTL3 and anti-ANGPTL3 antibody interaction was achieved by regenerating surface with 10 mM glycine/HCl (pH 2.0) for 40 s at a flow rate of 10 μl/min injection.
Data Analysis: The data was analyzed using the Biacore T200 Evaluation software. All the curves were initially reference-subtracted (from blank immobilized surface) and then subtracted from zero analyte concentration. Baselines were adjusted to zero for all curves and data was presented as Relative response or binding RU (Average of 5 s window) 5 s before end of sample injection.
Affinity of novel peptides of vaccine with ANGPTL3 antibody ANG were analysed by surface plasmon resonance (SPR), using a Biacore instrument (Biacore T200, GE Healthcare). SPR experiments were performed at 25° C. with a BIACORE T200 apparatus (GE Healthcare, Uppsala, Sweden).

ANGPTL3 = target: T1, ANGPTL3 (Homo sapiens, UniProt Q9Y5C1); conditions: humans, dose-dependent; cited from earlier work
T1 construct: In humans, Evinacumab (a therapeutic mAb developed against ANGPTL3) caused a dose-dependent reduction; host or cells: human subjects (circulating endogenous protein)
T1 sequence (Q9Y5C1 17-460): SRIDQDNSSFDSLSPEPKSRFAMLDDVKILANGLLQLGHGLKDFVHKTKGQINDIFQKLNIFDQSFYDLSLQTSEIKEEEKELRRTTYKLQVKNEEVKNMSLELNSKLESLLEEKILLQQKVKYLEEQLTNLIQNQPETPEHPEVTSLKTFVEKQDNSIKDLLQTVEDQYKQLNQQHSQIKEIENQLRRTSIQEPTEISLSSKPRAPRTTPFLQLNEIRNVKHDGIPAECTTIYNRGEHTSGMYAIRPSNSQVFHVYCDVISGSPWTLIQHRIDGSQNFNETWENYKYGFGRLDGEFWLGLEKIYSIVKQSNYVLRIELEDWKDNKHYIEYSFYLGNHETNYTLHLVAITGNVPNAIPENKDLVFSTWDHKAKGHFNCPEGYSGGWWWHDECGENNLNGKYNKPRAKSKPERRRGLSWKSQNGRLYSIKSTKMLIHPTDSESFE

[2] = target: Anti-ANGPTL3 polyclonal antibody (ABC83, Sigma); assay: SPR (Biacore T200), antibody immobilised on CM5, peptide as analyte at 1 mM

Row | Molecule | Relative response [1] [RU] | Relative response [2] [RU] | further results
1 | 86 (CR[APPA]AMLDDVKILANGLLQLGHGLKDFVHKTKGQI) [compound 86] | 5130.1 | – | –
2 | 84 (CRF[Aib]MLDDVKILANGLLQLGHGLKDFVHKTKGQI) [compound 84] | 5813.7 | – | –
3 | 5 (CRFAM[Nle]DDVKILANGLLQLGHGLKDFVHKTKGQI) [compound 5] | 5850 | – | –
4 | 6 (RFAMLDDV[Cit]ILANGLLQLGHGLKDFVHKTKGQI) [compound 6] | 6084.1 | – | –
5 | 2 (R[APPA]AMLDDVKILANGLLQLGHGLKDFVHKTKGQI) [compound 2] | 5674 | – | –
6 | 80 ([hArg]FAMLDDVKILANGLLQLGHGLKDFVHKTKGQI) [compound 80] | 5308.2 | – | –
7 | 83 (C[hArg]FAMLDDVKILANGLLQLGHGLKDFVHKTKGQI) [compound 83] | 5895.2 | – | –
8 | 49 (CRFAMLDDVKILANGLLQLGHGLKDFVHKTKGQI; artificial ANGPTL3 peptide) [compound 49] | 5464.1 | – | –
9 | 82 (C[Cit]FAMLDDV[Cit]ILANGLLQLGHGLKDFVHKTKGQI) [compound 82] | 5518.3 | – | –
10 | 87 (CRFAMLDDV[Cit]ILANGLLQLGHGLKDFVHKTKGQI) [compound 87] | 5820.9 | – | –
11 | Evinacumab | – | – | reduction in LDL cholesterol levels (ANGPTL3): up to 23%; reduction in fasting triglyceride levels (ANGPTL3): up to 76%
12 | 78 (RF[Aib]MLDDVKILANGLLQLGHGLKDFVHKTKGQI) [compound 78] | 5539.6 | – | –
13 | 1 (RFAMLDDVKILANGLLQLGHGLKDFVHKTKGQI; artificial ANGPTL3 peptide) [compound 1] | 4832.6 | – | –
14 | 85 (C[Cit]FAMLDDVLILANGLLQLGHGLKDFVHKTKGQI) [compound 85] | 4924.7 | – | –
15 | 79 ([Cit]FAMLDDV[Cit]ILANGLLQLGHGLKDFVHKTKGQI) [compound 79] | 6152.5 | – | –
16 | [hArg]FAMLDDVKILANGLLQLGHGLKDFVHKTKGQI [Peptide of SEQ ID NO. 80 (Har-…)] | – | 5310 | –
17 | C[Cit]FAMLDDVLILANGLLQLGHGLKDFVHKTKGQI [Peptide of SEQ ID NO. 85 (C-Cit-…)] | – | 4920 | –
18 | RF[Aib]MLDDVKILANGLLQLGHGLKDFVHKTKGQI [Peptide of SEQ ID NO. 78 (RF-Aib-…)] | – | 5540 | –
19 | C[Cit]FAMLDDV[Cit]ILANGLLQLGHGLKDFVHKTKGQI [Peptide of SEQ ID NO. 82 (C-Cit-FAMLDDV-Cit-…)] | – | 5520 | –
20 | R[APPA]AMLDDVKILANGLLQLGHGLKDFVHKTKGQI [Peptide of SEQ ID NO. 2 (R-APPA-…)] | – | 5670 | –
21 | [Cit]FAMLDDV[Cit]ILANGLLQLGHGLKDFVHKTKGQI [Peptide of SEQ ID NO. 79 (Cit-FAMLDDV-Cit-…)] | – | 6150 | –
22 | CRF[Aib]MLDDVKILANGLLQLGHGLKDFVHKTKGQI [Peptide of SEQ ID NO. 84 (C-RF-Aib-…)] | – | 5810 | –
23 | CRFAM[Nle]DDVKILANGLLQLGHGLKDFVHKTKGQI [Peptide of SEQ ID NO. 5 (CRFAM-Nle-…)] | – | 5850 | –
24 | C[hArg]FAMLDDVKILANGLLQLGHGLKDFVHKTKGQI [Peptide of SEQ ID NO. 83 (C-Har-…)] | – | 5900 | –
25 | CR[APPA]AMLDDVKILANGLLQLGHGLKDFVHKTKGQI [Peptide of SEQ ID NO. 86 (C-R-APPA-…)] | – | 5130 | –
26 | RFAMLDDV[Cit]ILANGLLQLGHGLKDFVHKTKGQI [Peptide of SEQ ID NO. 6 (RFAMLDDV-Cit-…)] | – | 6080 | –
27 | CRFAMLDDV[Cit]ILANGLLQLGHGLKDFVHKTKGQI [Peptide of SEQ ID NO. 87 (C-RFAMLDDV-Cit-…)] | – | 5820 | –
28 | RFAMLDDVKILANGLLQLGHGLKDFVHKTKGQI [Peptide of SEQ ID NO. 1 (…)] | – | 4830 | –
29 | CRFAMLDDVKILANGLLQLGHGLKDFVHKTKGQI [Peptide of SEQ ID NO. 49 (…)] | – | 5460 | –
